From patent publication US20140309404A1 (Eli Lilly, published 2014)
Blank lines part the entries; values can stand above or below the binder they belong to.

Assays:
[1] = target: T1, human BMP-6 (human, UniProt P22004 382-513, limits assumed); test: cell-based or functional assay
T1 sequence: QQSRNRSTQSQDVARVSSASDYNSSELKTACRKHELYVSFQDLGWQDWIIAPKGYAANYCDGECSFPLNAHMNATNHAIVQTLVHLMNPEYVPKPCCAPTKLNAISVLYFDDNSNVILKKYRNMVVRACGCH

[2] = target: T1, human BMP-6; test: SPR (BIAcore), ratio of KD against MAB507, 37 C
[3] = target: T1, human BMP-6; test: SPR (BIAcore), BMP-6 immobilised on CM4 chip, antibody injected, 37 C
[4] = target: T1, human BMP-6; test: cell-based or functional assay; remark: listed apart in the source
[5] = target: T2, human BMP-5 (human, UniProt P22003 317-454, limits assumed); test: SPR (BIAcore), BMP immobilised on CM4 chip, antibody injected, 37 C
T2 sequence (looked up): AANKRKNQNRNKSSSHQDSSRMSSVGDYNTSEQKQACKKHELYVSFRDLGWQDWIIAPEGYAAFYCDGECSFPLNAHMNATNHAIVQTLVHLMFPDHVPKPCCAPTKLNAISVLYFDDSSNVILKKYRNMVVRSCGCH

[6] = target: T3, human BMP-7 (human, UniProt P18075 293-431); test: as above
T3 sequence (looked up): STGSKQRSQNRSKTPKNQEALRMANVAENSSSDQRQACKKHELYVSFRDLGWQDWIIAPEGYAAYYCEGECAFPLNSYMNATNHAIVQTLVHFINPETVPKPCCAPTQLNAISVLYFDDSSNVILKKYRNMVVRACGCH

[7] = target: T1, human BMP-6; test: SPR (BIAcore), Fab on human BMP-6, 37 C
[8] = target: T4, Cynomolgus monkey BMP-6 (cynomolgus monkey); test: SPR (BIAcore), Fab on cynomolgus monkey BMP-6, 37 C
T4 construct: also called Cyno Monkey BMP-6

[9] = target: T1, human BMP-6; test: SPR (BIAcore), Fab on human BMP-6, 37 C; remark: listed apart in the source
[10] = target: T5, rat BMP-6 (rat, UniProt Q04906 368-506, limits assumed); test: SPR (BIAcore), Fab on rat BMP-6, 37 C
T5 sequence (looked up): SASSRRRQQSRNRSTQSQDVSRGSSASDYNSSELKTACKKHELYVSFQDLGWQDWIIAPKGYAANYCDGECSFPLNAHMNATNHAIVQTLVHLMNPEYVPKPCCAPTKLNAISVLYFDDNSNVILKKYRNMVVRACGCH

- fold potency against MAB507 in inhibition of BMP-6-induced hepcidin promoter luciferase activity [1]: ~22 fold
- fold higher affinity than MAB507 [2]: 50 fold
- Kd [3]: 0.02 nM
- koff [3]: 4.05e-05 s⁻¹
- kon [3]: 1.73e+06 M⁻¹ s⁻¹
- Geometric Mean IC50 (nM), BMP-6 induced Hep_Luc Assay (hepcidin promoter luciferase, HepProm_Luc cells) [4]: 0.99 nM
B1: Antibody I (antibody, human IgG4 S228P, kappa, F234A L235A, V domains shown)
VH: QVQLVQSGAEVKKPGSSVKVSCKASGYTFTSYAMHWVRQAPGQGLEWMGYINPYNDGTKYNENFKGRVTITADESTSTAYMELSSLRSEDTAVYYCARRPFGNAMDIWGQGTLVTVSS
VL: DIQMTQSPSSLSASVGDRVTITCRSSENIYRNLAWYQQKPGKAPKLLIYAATNLADGVPSRFSGSGSGTDFTLTISSLQPEDFATYYCQGIWGTPLTFGGGTKVEIKR
notes: Engineered antibody with human frameworks and constant regions
- binding result [5]: no binding (tested: up to 1000 nM antibody)
- binding result [6]: no binding (tested: up to 1000 nM antibody)

- fold potency against MAB507 in inhibition of BMP-6-induced hepcidin promoter luciferase activity [1]: ~22 fold
- Geometric Mean IC50 (nM), BMP-6 induced Hep_Luc Assay (hepcidin promoter luciferase, HepProm_Luc cells) [4]: 0.94 nM
B2: Antibody II (antibody, human IgG4 S228P, kappa, F234A L235A, V domains shown)
VH: QVQLVQSGAEVKKPGSSVKVSCKASGYTFTSYAMHWVRQAPGQGLEWMGYINPYNRGTKYNENFKGRVTITADESTSTAYMELSSLRSEDTAVYYCARRPFGNAMDIWGQGTLVTVSS
VL: DIQMTQSPSSLSASVGDRVTITCRSSENIYRNLAWYQQKPGKAPKLLIYAATNLADGVPSRFSGSGSGTDFTLTISSLQPEDFATYYCQGIWGTPLTFGGGTKVEIKR

- Kd [7]: 0.0845 nM
- koff [7]: 0.00028 s⁻¹
- kon [7]: 3.7e+06 M⁻¹ s⁻¹
- Kd [8]: 0.0796 nM
- koff [8]: 0.00028 s⁻¹
- kon [8]: 4.1e+06 M⁻¹ s⁻¹
- Kd [9]: 0.09 nM
- koff [9]: 0.00023 s⁻¹
- kon [9]: 2.5e+06 M⁻¹ s⁻¹
- Kd [10]: 0.088 nM
- koff [10]: 0.0003 s⁻¹
- kon [10]: 4.1e+06 M⁻¹ s⁻¹
B3: Fab of Antibody I (Fab, V domains shown)
VH: QVQLVQSGAEVKKPGSSVKVSCKASGYTFTSYAMHWVRQAPGQGLEWMGYINPYNDGTKYNENFKGRVTITADESTSTAYMELSSLRSEDTAVYYCARRPFGNAMDIWGQGTLVTVSS
VL: DIQMTQSPSSLSASVGDRVTITCRSSENIYRNLAWYQQKPGKAPKLLIYAATNLADGVPSRFSGSGSGTDFTLTISSLQPEDFATYYCQGIWGTPLTFGGGTKVEIK
notes: These are the variable regions of Antibody I; also called Antibody I Fab

- Kd [9]: 0.08 nM
- koff [9]: 0.00025 s⁻¹
- kon [9]: 3e+06 M⁻¹ s⁻¹
B4: Fab of Antibody II (Fab, V domains shown)
VH: QVQLVQSGAEVKKPGSSVKVSCKASGYTFTSYAMHWVRQAPGQGLEWMGYINPYNRGTKYNENFKGRVTITADESTSTAYMELSSLRSEDTAVYYCARRPFGNAMDIWGQGTLVTVSS
VL: DIQMTQSPSSLSASVGDRVTITCRSSENIYRNLAWYQQKPGKAPKLLIYAATNLADGVPSRFSGSGSGTDFTLTISSLQPEDFATYYCQGIWGTPLTFGGGTKVEIK
notes: These are the variable regions of Antibody II; also called Antibody II Fab
